According to US11311625B2, “Peptide-based multiple-drug delivery vehicle” (priority 2015, dated 2022):
Like-named read-outs stand apart in the source and are kept apart here.

How the values were obtained:
[1] = system: HEK293 and TRAMP C2 cell lines; assay type: cell-based, human; settings: 0.1-10 μM, both cell lines
Description: The cytotoxicity of the conjugates was determined by measuring the mitochondrial enzyme activity, using a commercial XTT assay kit. All samples contained DMSO at a final concentration <0.05%. Cells were cultured in micro wells at 2-4×10^4 cells/mL and incubated for 24 h or 72 h at 37° C. After the first incubation period of 24 h the cultures were washed and then given a fresh medium containing different concentrations of the tested substances. At the end of the second incubation, XTT reagent was added and the cells were re-incubated for additional 2-4 h. During that time the absorbencies in the wells were measured with a TECAN Infinite M200 ELISA reader at both 480 and 680 nm. […]
The in vitro activity of 9a was determined on human embryonic kidney 293 (HEK293) cells and human prostate cancer TRAMP C2 cell lines in order to compare the cytotoxicity of 9a relative to the three selected free drugs. […] The cytotoxicity of 9a was determined by measuring the mitochondrial enzyme activity of the different cell lines after incubation with the different substances for 24 h and 72 h. The viability factor (% of surviving cells) of the cell cultures was calculated relative to a control sample incubated with the vehicle only, considered as 100% viability. […]
FIGS. 19A-19D present the results of the viability assay (% surviving cells) of the cell cultures calculated relative to the control, 100% viability. […]

[2] = Bio-stability of 9a in murine liver homogenate (LH); assay type: in vitro ADME, mouse
Description: Preparation of the LH and assay: Mice were sacrificed by CO2 inhalation euthanasia. The livers were removed, minced, washed three times in cold PBS buffer and homogenized in Tris-HCl, pH 7.4 buffer (wt/3 vol.) by dozen strokes in a Potter-Elvehjem glass tissue grinder. The tissue homogenate was centrifuged at 4° C., 14000 rpm, 20 min. The supernatant was carefully collected (LH) and used immediately or else stored in liquid nitrogen. The concentration of protein was measured using the BCA protein assay with bovine serum albumin as a standard.
Assay incubation procedure: Incubations were conducted in an incubator oven set at 37° C. Each incubation tube contained 2 mL homogenate samples (equivalent to 6 mg total protein of mouse LH). The samples were prepared by adding 50 μL of stock solution to the LH at the beginning of the incubation period. Aliquots (100 μL) of the LH mixture were removed after 10, 30, 60, 90, 120, and 180 min. immediately quenched with 2.5 volumes of ethanol, and centrifuged at 14000 rpm for 15 min. The supernatants were collected, filtered and analyzed by LC-MS.
In order to get a biologically relevant picture of the release sequence of the different drugs, the bio-stability of 9a in murine liver homogenate (LH) was studied. Examination of the degradation rate of 9a, accompanied by cleavage of free drugs, was carried out following the LC-MS trace at different time intervals using premade authentic samples as reference signals.

[3] = Chemo-stability and drug release of 9a and CLB in buffers at pH 2, 5 and 7.4 (LC-MS); assay type: physicochemical; settings: for half-life at 0.04 mg/mL: buffer, read-out: degradation t1/2 (converted)
Description: Stock solutions chemo-stability studies were prepared by dissolving 5 mg of the tested compound in 5000 μl of DMSO.
Incubation procedure: Aqueous stability was determined at pH 2, 5 and 7.4. Aliquots (100 μl) of stock solution were diluted to a total of 2.5 mL with the desired buffer and then incubated at 37° C. During the incubation period (up to 160 h) 250 μL portions were drawn at different time intervals, filtered and analyzed by LC-MS.
Peptidyl delivery systems loaded with anticancer drugs are expected to reach their site of action with minimal degradation. The PDS should be stable enough to be absorbed by cancer cells and only then deliver its toxic cargo. Chemo-stability and bio-stability studies may give us a background check for the endurance of our compact peptidyl DDS under the different conditions it is expected to encounter in a potential animal test. To that end, samples of 9a were incubated at pH 2, mimicking stomach conditions, at pH 5 mimicking the microenvironment in tumors, and at physiological pH 7.4, all at 37° C. Aliquots from the stock solutions were extracted at different time intervals and analyzed by LC-MS following the decrease in concentration of 9a (i.e., chemical degradation) and the formation of the dihydroxy derivative 11. In addition, the direct release of the different drugs was also followed based on the increase in the concentration of CLB, AZA and CAMP over time. In this analysis samples of 9a, 11, CLB, AZA and CAMP were used as references. Overall, the HPLC trace presents a very complex mixture of metabolites which could not be exhaustively characterized. Scheme 9 below presented the molecular structure 11.

[4] = system: HEK-293 (Human Embryonic Kidney 293) cell line; assay: XTT growth inhibition assay, HEK-293 negative control; assay type: cell-based
Description: (§1) The cytotoxicity of the peptide-drug conjugates was determined by measuring the mitochondrial enzyme activity, using a commercial XTT assay kit. All samples contained DMSO at final concentration <0.05%. Cells were cultured in micro wells at 2-4×10^4 cells/ml and incubated for 24 h or 72 h. After the first incubation period the cultures were washed and then given fresh medium containing different concentrations of the tested substances. At the end of the second incubation, XTT reagent was added and the cells were re-incubated for additional 2-4 h. During that time the absorbencies in the wells were measured with a TECAN Infinite M200 plate reader at both 480 and 680 nm. […]
(§2) In order to compare the cytotoxic effects of the conjugates relative to the free drugs, the in vitro cytotoxic effect of the drug bioconjugates 1a-e was determined on SSTR2 overexpressed HCT 116 human colorectal carcinoma, H1299 human non-small cell lung carcinoma and TRAMP C2 human prostate cancer cell lines. […]
(§3) FIGS. 13A-13D present the results of the XTT growth inhibition assay conducted for conjugates 1a-e. […] After the treatment, growth inhibition was measured using the XTT assay: The culture medium was replaced by a new one, and then the XTT reagent was added. The wells were incubated for 2-4 hrs. after which the optical density (OD) was measured at 480 and 680 nm. […]

[5] = system: HCT 116, H1299, TRAMP C2 and HEK cell lines; assay: XTT growth inhibition assay, statements over all tested cell lines; assay type: cell-based, human
Description: (§4) The cytotoxicity of the peptide-drug conjugates was determined by measuring the mitochondrial enzyme activity, using a commercial XTT assay kit. All samples contained DMSO at final concentration <0.05%. Cells were cultured in micro wells at 2-4×10^4 cells/ml and incubated for 24 h or 72 h. After the first incubation period the cultures were washed and then given fresh medium containing different concentrations of the tested substances. At the end of the second incubation, XTT reagent was added and the cells were re-incubated for additional 2-4 h. During that time the absorbencies in the wells were measured with a TECAN Infinite M200 plate reader at both 480 and 680 nm. The difference between these measurements was used for calculating the % Growth Inhibition (GI) in test wells compared to two controls: cells that were exposed to the medium and solvent, and those that were exposed to a solvent-free medium. All the tests were done in quadruplicates. Each experiment was conducted twice.
(§5) In order to compare the cytotoxic effects of the conjugates relative to the free drugs, the in vitro cytotoxic effect of the drug bioconjugates 1a-e was determined on SSTR2 overexpressed HCT 116 human colorectal carcinoma, H1299 human non-small cell lung carcinoma and TRAMP C2 human prostate cancer cell lines. The SSTR2 low-expressed HEK-293 (Human Embryonic Kidney 293) cell line was used as a negative control. The study was elaborated over a concentration range of 1-10 μM.
FIGS. 13A-13D present the results of the XTT growth inhibition assay conducted for conjugates 1a-e. Growth inhibition effect of drug-conjugates versus free drugs was studied on three cell lines with an over-expression of SSTR2 (FIG. 13A. HCT 116; FIG. 13B. H1299; FIG. 13C. TRAMP C2) against the SSTR2 low expression cell line (FIG. 13D) HEK as negative control. All the cell lines were seeded and allowed to adhere in the wells, after which they were treated with the different compounds in increasing concentrations for 24 and 72 hr. After the treatment, growth inhibition was measured using the XTT assay: The culture medium was replaced by a new one, and then the XTT reagent was added. The wells were incubated for 2-4 hrs. after which the optical density (OD) was measured at 480 and 680 nm. Percentage of growth inhibition for each compound was calculated by comparison of the treated culture versus a control culture (free of any compound). The result shown for each concentration point represents the mean±standard error calculated from two different experiments. In each experiment the compounds were tested in quadruplicates.

[6] = system: H1299 human non-small cell lung carcinoma cells; assay: XTT growth inhibition assay, H1299; assay type: cell-based; settings: 10 μM, incubation of 72 h
Description: as §4, §5
as §3, with “nm. Percentage of growth inhibition for each compound was calculated by comparison of the treated culture versus a control culture (free of any compound). The result shown for each concentration point represents the mean±standard error calculated from two different experiments.” for “nm.”

[7] = Bio-stability and drug release of conjugates 1a-e in murine liver homogenate (LH); assay type: in vitro ADME, mouse; settings: 37° C.
Description: Preparation of liver homogenate: Mice were sacrificed by CO2 inhalation euthanasia. The livers were removed, minced, washed three times in cold PBS buffer and homogenized in Tris-HCl buffer, pH 7.4 (wt/3 vol.) by dozen strokes in a Potter-Elvehjem glass tissue grinder. The tissue homogenate was centrifuged at 4° C., 14000 rpm, 20 min. The supernatant was carefully collected (liver homogenate) and used immediately or else stored in liquid nitrogen.
Incubation procedure: Incubations were conducted in a 37° C. incubator with 2 ml homogenate (equivalent to 6 mg total protein of mouse liver homogenate) per incubation tube. The samples were prepared by adding 50 μl of stock solution to the homogenate (homogenate mixture) at the beginning of the incubation period. Aliquots of the homogenate mixture were removed after 10, 30, 60, 90, 120 and 180 min and then immediately quenched with 2.5 volumes of ethanol. The samples were centrifuged at 14000 rpm for 15 min. Supernatants were collected, filtered and analyzed by LC-MS.
FIGS. 12A-12E present the results of the bio-stability and drug release profiles assays conducted for conjugates 1a-e in LH. […] Stock solutions were prepared by dissolving 5 mg of the measured conjugate in 0.5 ml DMSO. 50 μl of the stock solution were diluted with 2 ml of fresh mouse liver homogenate and then the mixture was incubated at 37° C. Aliquots were collected at 10, 30, 60, 90 and 120 min, mixed with 2.5 volumes of ethanol and centrifuged (14,000 rpm, 15 min). The supernatants were collected, filtered and analyzed by LC-MS

[8] = system: TRAMP C2 prostate cancer cell lines; assay: XTT growth inhibition assay, TRAMP C2; assay type: cell-based, human; settings: compared with corresponding free drugs
Description: as §1, §2, §3

[9] = Chemo-stability and drug release of conjugates 1a-e in buffers at pH 2, 5 and 7.4 (LC-MS); assay type: physicochemical; settings: 37° C.
Description: Incubation procedure: Aqueous stability was determined at pH 2.0 (phosphate buffer), 5.0 (citrate buffer) and 7.4 (PBS buffer). 100 μl of the stock solutions were diluted to 2.5 ml with the desired buffer and then incubated at 37° C. During the incubation period (up to 200 hrs.), aliquots were removed at different time intervals, filtered and analyzed by LC-MS.
Chemo-stability. The chemo-stability tests of the conjugates were performed at three different pH values; a physiological pH of 7.4, the slightly acidic pH 5, mimicking the microenvironment in tumors, and the more acidic pH 2.
FIGS. 11A-11J present the results of the chemo-stability and drug release profiles assays, conducted for conjugates 1a-e at pH 2, 5 and 7.4. Degradation of 1a (FIG. 11A), 1b (FIG. 11C), 1c (FIG. 11E), 1d (FIG. 11G), 1e FIG. 11 (FIG. 11I), and the release of the corresponding drugs: CLB (FIG. 11B), CPT (FIG. 11D), AM (FIG. 11F), ABT-751 (FIG. 11H), and COMB (FIG. 11J). Stock solutions were prepared by dissolving 5 mg of the measured conjugate in 0.5 ml DMSO. 100 μl of the stock solution were diluted to 2.5 ml with the relevant buffer and then incubated at 37° C. Along the incubation period, aliquots were taken at the desired time points and analyzed by LC-MS.

SMILES: CC[C@@]1(OC(=O)NCCCC[C@H](NC(=O)CCCc2ccc(N(CCCl)CCCl)cc2)C(=O)NCCCC[C@H](NC(=O)Oc2c(OC)cc([C@@H]3c4[nH]c5ccccc5c4C[C@H]4COC(=O)N43)cc2OC)C(=O)O)C(=O)OCc2c1cc1n(c2=O)Cc2cc3ccccc3nc2-1 [9a, Lys(AZA)-Lys(CBL)(CAMP)]
- cytotoxic effect / relative cytotoxic activity [1]: comparable level to the tested free drugs
- presence of free AZA [2]: could not be detected
- time to concentration plateau of released CAMP [2]: 30 min
- time to steady state plateau of released CLB [2]: 80 min
- drug release in LH ([2]; 37° C.): quick release of CLB and CAMP
- half-life at 0.04 mg/mL ([3]; pH 2, 37° C.): 2 h
- half-life at 0.04 mg/mL ([3]; pH 5, 37° C.): 1.5 h
- release of the three drugs ([3]; pH 2): none of the three drugs appeared to be released intact or at all
- appearance of free AZA ([3]; pH 5): not detected
- maximum concentration of released CAMP ([3]; pH 5): 34 nM
- period in which released CAMP decays completely ([3]; pH 5): ≤ 80 h
- time at which CLB could be first detected ([3]; pH 5): 38 h
- time to maximum concentration of released CAMP ([3]; pH 5): 21 h
- concentration of released CLB ([3]; pH 5, after 100 h): ≤ 44 nM
- free CLB ([3]; pH 7.4): not detected
- maximum concentration plateau of released AZA ([3]; pH 7.4): 12 nM
- time at which AZA concentration starts to rise above base-line ([3]; pH 7.4): 20 h
- time at which CAMP could be detected ([3]; pH 7.4): 75 h
- time to maximum concentration of released CAMP ([3]; pH 7.4): 100 h
- time to maximum concentration plateau of released AZA ([3]; pH 7.4): 40 h

SMILES: CC[C@@]1(O)C(=O)OCc2c1cc1n(c2=O)Cc2cc3ccccc3nc2-1 [CPT, Camptothecin]
- cytotoxic effect [4]: toxic
- IC50 values ([5]; tested cell lines including HEK): low μM range

SMILES: COc1ccc(S(=O)(=O)Nc2cccnc2Nc2ccc(OC(=O)NCCCC(=O)N[C@H](Cc3ccccc3)C(=O)N[C@H]3CSSCCN(CC(N)=O)C(=O)[C@H](Cc4ccccc4)NC(=O)[C@H]([C@@H](C)O)NC(=O)[C@H](CCCCN)NC(=O)[C@@H](Cc4c[nH]c5ccccc45)NC(=O)[C@H](Cc4c[nH]c5ccccc45)NC(=O)[C@H](Cc4ccccc4)NC3=O)cc2)cc1 [conjugate 1d]
- cytotoxic effect on H1299 [6]: most active
- release of free drug in liver homogenate [7]: could hardly be detected
- cytotoxic effect on TRAMP C2 [8]: most potent targeted therapeutic effect
- degradation of conjugate ([9]; all tested pH values (pH 2, 5, 7.4)): rapid degradation
- half-life at 0.4 mg/ml ([9]; buffer, all tested pH values, read-out: average degradation t1/2 (converted)): 8 h
- cytotoxicity throughout the study ([5]; 1-10 μM, 24 and 72 h): targeted but cell selective cytotoxicity
